For the assay, the target named is anti-PcrV scFv conjugated with the mouse IgG1 hinge, CH2 and CH3 domains, scFv-m166-mFc (recombinant protein) (mouse). Description: non-reducing SDS-PAGE with immunoblot.

The record followed here is publication PMC13066097.

What is called stoichiometry N is a count of units in the complex or per binding partner.

As to “anti-PcrV scFv conjugated with the mouse IgG1 hinge, CH2 and CH3 domains, scFv-m166-mFc (recombinant protein) (Fc fusion)”, the stoichiometry N was found to be 2.
